Source: US10562947B2, “Compositions and methods for preventing or treating diseases, conditions or processes characterized by aberrant fibroblast proliferation and extracellular matrix deposition” (MOERAE MATRIX, INC., priority 2011, dated 2020)

Assays:
Assay in all cases: Kinase Profiling Assay
Format in all cases: biochemical
Conditions in all cases: 100 μM peptide
[1] = molecular target: CDK2/cyclinE(h) (Homo sapiens, UniProt P24941)
Procedure: (§1) Every kinase activity measurement was conducted in duplicate.
(§2) In addition to determining the IC50 of the compound, the specificity of MK2 inhibitory peptides was assessed by examining activities of all 266 human kinases available for testing in the Millipore kinase profiling service (Table 1).

[2] = molecular target: AMPKα2(h) (Homo sapiens, UniProt P54646)
AMPKα2(h), sequence (P54646 whole entry): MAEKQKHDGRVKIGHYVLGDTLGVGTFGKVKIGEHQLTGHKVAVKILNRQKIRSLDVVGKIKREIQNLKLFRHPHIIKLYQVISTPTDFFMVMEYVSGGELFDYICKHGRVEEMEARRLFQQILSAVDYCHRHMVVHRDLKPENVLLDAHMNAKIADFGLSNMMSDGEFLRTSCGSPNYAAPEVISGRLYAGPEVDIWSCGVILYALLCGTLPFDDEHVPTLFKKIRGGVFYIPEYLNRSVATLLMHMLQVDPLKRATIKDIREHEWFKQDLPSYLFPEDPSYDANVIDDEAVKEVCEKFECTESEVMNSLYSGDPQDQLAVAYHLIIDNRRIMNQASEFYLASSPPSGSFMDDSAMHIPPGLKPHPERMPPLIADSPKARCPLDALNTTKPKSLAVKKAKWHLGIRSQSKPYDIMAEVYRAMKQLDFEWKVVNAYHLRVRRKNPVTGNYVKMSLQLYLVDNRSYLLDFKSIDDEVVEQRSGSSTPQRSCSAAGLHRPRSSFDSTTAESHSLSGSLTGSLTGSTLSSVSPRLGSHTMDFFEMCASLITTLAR
AMPKα2(h), sequence (Q9Y478 whole entry partner): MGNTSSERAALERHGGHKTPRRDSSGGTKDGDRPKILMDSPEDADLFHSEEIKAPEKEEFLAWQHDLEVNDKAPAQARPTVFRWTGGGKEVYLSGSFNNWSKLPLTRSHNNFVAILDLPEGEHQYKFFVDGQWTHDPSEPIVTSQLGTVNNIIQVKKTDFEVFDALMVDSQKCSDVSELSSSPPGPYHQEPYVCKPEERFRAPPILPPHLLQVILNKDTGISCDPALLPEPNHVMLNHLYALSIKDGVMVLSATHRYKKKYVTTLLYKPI
AMPKα2(h), sequence (P54619 whole entry partner): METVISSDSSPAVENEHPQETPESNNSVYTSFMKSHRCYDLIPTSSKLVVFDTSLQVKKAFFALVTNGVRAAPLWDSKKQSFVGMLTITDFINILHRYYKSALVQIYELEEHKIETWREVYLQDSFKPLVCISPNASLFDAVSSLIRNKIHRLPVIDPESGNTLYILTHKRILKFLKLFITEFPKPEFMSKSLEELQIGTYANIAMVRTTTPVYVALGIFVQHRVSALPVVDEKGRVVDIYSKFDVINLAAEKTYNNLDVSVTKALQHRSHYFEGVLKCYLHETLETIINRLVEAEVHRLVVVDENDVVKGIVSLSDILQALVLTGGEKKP
Procedure: as §1, §2

[3] = molecular target: SAPK2a(T106M)(h) (Homo sapiens, UniProt Q16539, T106M)
SAPK2a(T106M)(h), sequence (Q16539 whole entry T106M): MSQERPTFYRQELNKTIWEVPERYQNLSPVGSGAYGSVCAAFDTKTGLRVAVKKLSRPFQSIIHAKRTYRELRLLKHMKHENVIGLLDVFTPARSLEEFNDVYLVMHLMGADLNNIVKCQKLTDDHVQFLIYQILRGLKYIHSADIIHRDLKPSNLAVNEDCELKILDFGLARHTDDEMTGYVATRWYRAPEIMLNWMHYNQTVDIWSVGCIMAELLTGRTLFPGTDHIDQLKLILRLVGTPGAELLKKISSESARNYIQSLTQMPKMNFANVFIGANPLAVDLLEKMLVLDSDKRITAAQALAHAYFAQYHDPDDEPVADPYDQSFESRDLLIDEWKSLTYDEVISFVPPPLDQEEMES
Procedure: as §1, §2

[4] = molecular target: ErbB4(h) (Homo sapiens, UniProt Q15303)
ErbB4(h), sequence (Q15303 26-1308): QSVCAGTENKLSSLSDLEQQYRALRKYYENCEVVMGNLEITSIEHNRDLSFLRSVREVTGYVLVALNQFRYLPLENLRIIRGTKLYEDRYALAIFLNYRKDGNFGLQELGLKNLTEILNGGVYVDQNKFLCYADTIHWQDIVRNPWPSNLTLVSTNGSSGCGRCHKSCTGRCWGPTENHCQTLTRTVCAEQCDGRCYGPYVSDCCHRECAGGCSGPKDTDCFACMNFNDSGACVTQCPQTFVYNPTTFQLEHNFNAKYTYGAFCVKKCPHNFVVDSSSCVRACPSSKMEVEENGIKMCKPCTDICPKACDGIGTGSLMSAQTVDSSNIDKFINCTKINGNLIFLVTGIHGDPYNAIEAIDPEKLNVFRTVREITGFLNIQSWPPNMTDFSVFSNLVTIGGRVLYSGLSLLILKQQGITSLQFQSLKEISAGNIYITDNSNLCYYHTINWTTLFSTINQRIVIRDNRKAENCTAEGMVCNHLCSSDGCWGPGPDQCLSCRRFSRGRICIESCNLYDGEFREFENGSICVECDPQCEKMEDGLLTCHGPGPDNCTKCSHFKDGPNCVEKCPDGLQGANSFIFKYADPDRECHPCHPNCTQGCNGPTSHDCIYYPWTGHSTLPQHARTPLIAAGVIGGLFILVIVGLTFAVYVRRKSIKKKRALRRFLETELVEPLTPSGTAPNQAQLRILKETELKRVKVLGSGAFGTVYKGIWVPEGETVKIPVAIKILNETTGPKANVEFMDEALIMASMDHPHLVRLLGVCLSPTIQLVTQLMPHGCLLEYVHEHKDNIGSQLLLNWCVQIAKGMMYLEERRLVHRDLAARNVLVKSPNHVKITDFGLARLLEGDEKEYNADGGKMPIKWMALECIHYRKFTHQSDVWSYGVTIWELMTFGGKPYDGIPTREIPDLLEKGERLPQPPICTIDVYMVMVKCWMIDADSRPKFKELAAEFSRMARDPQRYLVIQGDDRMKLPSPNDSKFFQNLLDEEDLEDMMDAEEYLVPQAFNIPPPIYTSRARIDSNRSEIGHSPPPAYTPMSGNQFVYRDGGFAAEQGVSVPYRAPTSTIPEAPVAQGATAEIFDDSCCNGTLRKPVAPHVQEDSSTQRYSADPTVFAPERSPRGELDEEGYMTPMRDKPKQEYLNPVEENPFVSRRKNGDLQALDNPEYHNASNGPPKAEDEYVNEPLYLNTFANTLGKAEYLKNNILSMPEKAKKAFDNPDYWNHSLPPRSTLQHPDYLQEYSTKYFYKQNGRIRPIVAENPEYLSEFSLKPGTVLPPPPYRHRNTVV
Procedure: as §1, §2

[5] = molecular target: Src(T341M)(h) (Homo sapiens, UniProt P12931, T341M)
Procedure: as §1, §2

[6] = molecular target: T1, PKD2(h) (Homo sapiens, UniProt Q9BZL6)
T1 construct: purchased Millipore (IC50 Profiler Express service)
T1 sequence (Q9BZL6 1-878): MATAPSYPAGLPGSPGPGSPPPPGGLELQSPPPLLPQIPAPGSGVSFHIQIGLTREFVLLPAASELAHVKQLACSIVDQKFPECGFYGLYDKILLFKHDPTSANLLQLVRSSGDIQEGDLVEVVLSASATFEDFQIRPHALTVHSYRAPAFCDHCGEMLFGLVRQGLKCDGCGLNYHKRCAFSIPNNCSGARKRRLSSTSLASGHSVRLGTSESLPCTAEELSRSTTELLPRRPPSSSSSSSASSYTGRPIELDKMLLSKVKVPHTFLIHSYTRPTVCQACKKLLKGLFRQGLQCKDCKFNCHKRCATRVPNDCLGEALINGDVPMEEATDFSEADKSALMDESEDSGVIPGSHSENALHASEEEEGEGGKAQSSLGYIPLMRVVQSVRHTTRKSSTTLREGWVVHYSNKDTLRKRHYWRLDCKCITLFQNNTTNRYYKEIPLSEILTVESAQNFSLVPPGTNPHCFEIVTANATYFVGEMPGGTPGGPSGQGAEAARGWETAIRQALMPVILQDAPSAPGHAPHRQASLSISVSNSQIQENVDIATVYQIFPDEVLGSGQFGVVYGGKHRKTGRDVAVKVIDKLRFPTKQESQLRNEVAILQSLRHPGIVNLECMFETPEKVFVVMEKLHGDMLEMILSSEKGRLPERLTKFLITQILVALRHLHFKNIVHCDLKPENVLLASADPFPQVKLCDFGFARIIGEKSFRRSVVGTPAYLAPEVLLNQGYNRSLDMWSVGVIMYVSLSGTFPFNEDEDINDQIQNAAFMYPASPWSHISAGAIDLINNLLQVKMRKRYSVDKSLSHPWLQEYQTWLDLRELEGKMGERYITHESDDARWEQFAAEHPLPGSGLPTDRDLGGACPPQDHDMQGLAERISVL
Procedure: as §1, §2

[7] = molecular target: T2, DRAK1(h) (Homo sapiens, UniProt Q9UEE5)
T2 sequence (Q9UEE5 1-414): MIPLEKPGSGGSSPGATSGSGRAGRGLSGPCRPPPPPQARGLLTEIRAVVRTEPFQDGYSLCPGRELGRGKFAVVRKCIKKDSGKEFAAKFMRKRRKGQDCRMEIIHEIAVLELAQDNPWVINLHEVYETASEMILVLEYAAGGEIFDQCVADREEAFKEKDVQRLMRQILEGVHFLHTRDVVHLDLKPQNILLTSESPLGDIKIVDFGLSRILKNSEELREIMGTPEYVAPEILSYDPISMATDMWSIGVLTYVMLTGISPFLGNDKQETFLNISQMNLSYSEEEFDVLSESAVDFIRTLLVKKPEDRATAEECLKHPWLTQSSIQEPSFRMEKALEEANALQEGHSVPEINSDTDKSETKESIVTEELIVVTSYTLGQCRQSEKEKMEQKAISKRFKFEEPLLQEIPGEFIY
Procedure: as §1, §2

[8] = molecular target: T3, CaMKIV(h) (Homo sapiens, UniProt Q16566)
T3 sequence (Q16566 1-473): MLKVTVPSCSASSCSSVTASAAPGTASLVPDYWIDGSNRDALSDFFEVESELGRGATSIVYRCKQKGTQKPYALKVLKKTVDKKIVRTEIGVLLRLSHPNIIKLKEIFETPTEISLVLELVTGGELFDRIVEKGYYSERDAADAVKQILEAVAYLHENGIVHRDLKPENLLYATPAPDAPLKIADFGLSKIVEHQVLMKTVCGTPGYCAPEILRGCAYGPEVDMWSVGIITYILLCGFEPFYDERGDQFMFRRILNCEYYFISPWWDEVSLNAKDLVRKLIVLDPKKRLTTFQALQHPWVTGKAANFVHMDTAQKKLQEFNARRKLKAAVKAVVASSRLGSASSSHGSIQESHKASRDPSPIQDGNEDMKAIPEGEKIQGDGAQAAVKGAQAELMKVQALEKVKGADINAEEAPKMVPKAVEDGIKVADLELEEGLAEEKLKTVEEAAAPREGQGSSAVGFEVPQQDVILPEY
Procedure: as §1, §2

[9] = molecular target: CDK2/cyclinA(h) (Homo sapiens, UniProt P24941)
Procedure: as §1, §2

[10] = molecular target: T4, ZAP-70(h) (Homo sapiens, UniProt P43403)
T4 sequence (P43403 1-619): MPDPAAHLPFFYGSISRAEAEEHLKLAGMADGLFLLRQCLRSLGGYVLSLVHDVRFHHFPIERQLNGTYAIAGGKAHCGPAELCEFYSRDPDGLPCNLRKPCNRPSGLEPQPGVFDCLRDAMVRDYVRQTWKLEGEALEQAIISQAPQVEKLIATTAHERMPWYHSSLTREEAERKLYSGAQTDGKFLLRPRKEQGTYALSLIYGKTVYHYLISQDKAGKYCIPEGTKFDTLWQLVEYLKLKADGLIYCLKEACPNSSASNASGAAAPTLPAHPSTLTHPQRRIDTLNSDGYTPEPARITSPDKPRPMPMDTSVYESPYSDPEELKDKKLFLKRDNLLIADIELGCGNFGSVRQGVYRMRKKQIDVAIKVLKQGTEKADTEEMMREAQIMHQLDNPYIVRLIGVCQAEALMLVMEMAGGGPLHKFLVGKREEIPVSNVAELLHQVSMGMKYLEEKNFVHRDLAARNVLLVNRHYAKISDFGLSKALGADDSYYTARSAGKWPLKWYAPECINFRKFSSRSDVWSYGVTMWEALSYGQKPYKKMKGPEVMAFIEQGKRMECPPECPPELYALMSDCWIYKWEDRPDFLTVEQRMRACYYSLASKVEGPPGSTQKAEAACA
Procedure: as §1, §2

| Sequence | CDK2/cyclinE(h) % activity [1] [%] | AMPKα2(h) % activity [2] [%] | SAPK2a(T106M)(h) % activity [3] [%] | ErbB4(h) % activity [4] [%] | Src(T341M)(h) % activity [5] [%] | PKD2(h) % activity [6] [%] | DRAK1(h) % activity [7] [%] | CaMKIV(h) % activity [8] [%] | CDK2/cyclinA(h) % activity [9] [%] | ZAP-70(h) % activity [10] [%] |
| --- | --- | --- | --- | --- | --- | --- | --- | --- | --- | --- |
| HRRIKAWLKKIKALARQLGVAA (Mammalian) [MMI-0500] | 19 | 9 | 32 | 2 | 59 | 10 | 8 | −1 | 87 | 1 |
| KAFAKLAARLYRKALARQLGVAA [MMI-0400] | 83 | 58 | 99 | 0 | 76 | 25 | 14 | 18 | 92 | 33 |
| FAKLAARLYRKALARQLGVAA [MMI-0300] | 94 | 54 | 97 | 40 | 70 | 33 | 14 | 17 | 86 | 75 |
| YARAAARQARAKALNRQLGVA (Mammalian) [MMI-0200] |  | 88 | 100 | 82 | 56 | 78 | 34 | 71 |  | 58 |
